Reference: patent US20120316071A1 (published 2012)
Where a chain is given by its changes, count along the chain named. Names and notes keep the numbering of the source.

Tests used:
[1] = molecular target: T1, rHuman ErbB2/Fc Chimera, CF (R&D Systems Cat#1129-ER) (human, UniProt P04626 23-652); test: ECL multispot (MSD), antigen spotted, Fab in solution; blank spot 356
T1 construct: Bought reagent

[2] = molecular target: T2, rHuman EGF R/Fc Chimera, CF (R&D Systems Cat#344-ER) (human, UniProt P00533 25-645); test: as above
T2 construct: Bought reagent

[3] = molecular target: T3, rHuman HGF R/c-MET/Fc Chimera, CF (R&D Systems Cat#358-MT/CF) (human, UniProt P08581 25-932); test: as above
T3 construct: Bought reagent; also called HGF R/Fc

[4] = molecular target: T4, rHuman Notch-1/Fc Chimera, CF (R&D Systems Cat#3647-TK) (human, UniProt P46531 19-526); test: as above
T4 construct: Bought reagent

[5] = molecular target: T5, rHuman CD44/Fc Chimera, CF (R&D Systems Cat#3660-CD) (human, UniProt P16070 21-220); test: as above
T5 construct: Bought reagent

[6] = molecular target: T6, rHuman IGF-1 sR (insulin-like growth factor-1 soluble receptor), CF (R&D Systems Cat#391-GR) (human, UniProt P08069 31-932); test: as above
T6 construct: Bought soluble receptor

[7] = molecular target: T7, rHuman P-Cadherin/Fc Chimera, CF (R&D Systems Cat#861-PC) (human, UniProt P22223 108-654); test: as above
T7 construct: Bought reagent

[8] = molecular target: T8, rHuman Erythropoietin R/Fc Chimera, CF (R&D Systems Cat#963-ER) (human, UniProt P19235 25-250); test: as above
T8 construct: Bought reagent; also called EPO R; Epo R/Fc
T8 sequence (looked up): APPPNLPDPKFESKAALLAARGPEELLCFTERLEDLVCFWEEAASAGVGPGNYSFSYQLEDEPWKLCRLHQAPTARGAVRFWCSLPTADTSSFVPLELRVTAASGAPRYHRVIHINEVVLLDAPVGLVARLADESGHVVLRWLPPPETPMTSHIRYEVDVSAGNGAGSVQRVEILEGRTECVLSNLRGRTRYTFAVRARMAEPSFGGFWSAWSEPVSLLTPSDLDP

[9] = molecular target: T9, Recombinant Human DLL4 (R&D Systems Cat#1506-D4/CF) (human, UniProt Q9NR61 27-524); test: as above
T9 construct: Bought recombinant protein; also called delta-like protein 4; rHuman DLL4

[10] = molecular target: T1, rHuman ErbB2/Fc Chimera, CF (R&D …); test: ECL multispot (MSD), antigen spotted, Fab in solution; blank spot 198
[11] = molecular target: T2, rHuman EGF R/Fc Chimera, CF (R&D …); test: as above
[12] = molecular target: T3, rHuman HGF R/c-MET/Fc Chimera, CF (R&D …); test: as above
[13] = molecular target: T4, rHuman Notch-1/Fc Chimera, CF (R&D …); test: as above
[14] = molecular target: T5, rHuman CD44/Fc Chimera, CF (R&D Systems …); test: as above
[15] = molecular target: T6, rHuman IGF-1 sR (insulin-like growth …); test: as above
[16] = molecular target: T7, rHuman P-Cadherin/Fc Chimera, CF (R&D …); test: as above
[17] = molecular target: T8, rHuman Erythropoietin R/Fc Chimera, CF …; test: as above
[18] = molecular target: T9, Recombinant Human DLL4 (R&D Systems …); test: as above
[19] = molecular target: T1, rHuman ErbB2/Fc Chimera, CF (R&D …); test: ECL multispot (MSD), antigen spotted, Fab in solution; blank spot 289
[20] = molecular target: T2, rHuman EGF R/Fc Chimera, CF (R&D …); test: as above
[21] = molecular target: T3, rHuman HGF R/c-MET/Fc Chimera, CF (R&D …); test: as above
[22] = molecular target: T4, rHuman Notch-1/Fc Chimera, CF (R&D …); test: as above
[23] = molecular target: T5, rHuman CD44/Fc Chimera, CF (R&D Systems …); test: as above
[24] = molecular target: T6, rHuman IGF-1 sR (insulin-like growth …); test: as above
[25] = molecular target: T7, rHuman P-Cadherin/Fc Chimera, CF (R&D …); test: as above
[26] = molecular target: T8, rHuman Erythropoietin R/Fc Chimera, CF …; test: as above
[27] = molecular target: T9, Recombinant Human DLL4 (R&D Systems …); test: as above
[28] = molecular target: T1, rHuman ErbB2/Fc Chimera, CF (R&D …); test: ECL multispot (MSD), antigen spotted, Fab in solution; blank spot 272
[29] = molecular target: T2, rHuman EGF R/Fc Chimera, CF (R&D …); test: as above
[30] = molecular target: T3, rHuman HGF R/c-MET/Fc Chimera, CF (R&D …); test: as above
[31] = molecular target: T4, rHuman Notch-1/Fc Chimera, CF (R&D …); test: as above
[32] = molecular target: T5, rHuman CD44/Fc Chimera, CF (R&D Systems …); test: as above
[33] = molecular target: T6, rHuman IGF-1 sR (insulin-like growth …); test: as above
[34] = molecular target: T7, rHuman P-Cadherin/Fc Chimera, CF (R&D …); test: as above
[35] = molecular target: T8, rHuman Erythropoietin R/Fc Chimera, CF …; test: as above
[36] = molecular target: T9, Recombinant Human DLL4 (R&D Systems …); test: as above

T3 sequence (P08581 25-932, change not shown): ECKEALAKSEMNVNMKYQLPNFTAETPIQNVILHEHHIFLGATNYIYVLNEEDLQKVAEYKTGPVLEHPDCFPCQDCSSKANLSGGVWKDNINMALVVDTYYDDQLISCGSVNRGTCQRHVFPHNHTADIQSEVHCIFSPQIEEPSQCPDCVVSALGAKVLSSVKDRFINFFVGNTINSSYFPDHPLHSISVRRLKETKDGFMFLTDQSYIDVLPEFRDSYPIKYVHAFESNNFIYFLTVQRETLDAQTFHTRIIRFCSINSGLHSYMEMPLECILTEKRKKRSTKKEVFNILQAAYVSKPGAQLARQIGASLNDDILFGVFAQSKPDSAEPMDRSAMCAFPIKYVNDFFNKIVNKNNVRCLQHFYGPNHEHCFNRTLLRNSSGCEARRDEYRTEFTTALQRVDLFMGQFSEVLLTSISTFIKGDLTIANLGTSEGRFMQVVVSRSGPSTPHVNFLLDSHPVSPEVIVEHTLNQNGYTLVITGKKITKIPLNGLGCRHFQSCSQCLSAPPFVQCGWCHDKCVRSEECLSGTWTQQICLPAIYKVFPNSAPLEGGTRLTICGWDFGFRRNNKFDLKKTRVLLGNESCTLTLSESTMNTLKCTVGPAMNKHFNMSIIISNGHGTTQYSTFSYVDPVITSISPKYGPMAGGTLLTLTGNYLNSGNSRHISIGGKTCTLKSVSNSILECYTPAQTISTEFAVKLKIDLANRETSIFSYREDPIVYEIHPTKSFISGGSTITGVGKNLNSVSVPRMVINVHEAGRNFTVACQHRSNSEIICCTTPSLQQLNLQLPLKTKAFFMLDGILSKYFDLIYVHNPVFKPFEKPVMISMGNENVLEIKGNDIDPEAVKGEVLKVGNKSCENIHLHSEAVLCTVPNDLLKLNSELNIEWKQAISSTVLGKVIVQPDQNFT

B1: Fab VH1-46_IGHD6-6*01_IGHJ1*01 S102A/S103P/S104F/H111F (APFF) & L6_IGKJ1*01 S30A (Fab, V domains shown)
VH: QVQLVQSGAEVKKPGASVKVSCKASGYTFTSYYMHWVRQAPGQGLEWMGIINPSGGSTSYAQKFQGRVTMTRDTSTSTVYMELSSLRSEDTAVYYCAREEYAPFSAEYFQFWGQGTLVTVSS
VL: EIVLTQSPATLSLSPGERATLSCRASQSVASYLAWYQQKPGQAPRLLIYDASNRATGIPARFSGSGSGTDFTLTISSLEPEDFAVYYCQQRSNWPPWTFGQGTKVEIKR
notes: Tested as Fab made in E. coli: VH joined to CH1 from Plasmid A (His6 and Flag tags), VL joined to kappa CL from Plasmid C; also called APFF / S30A
In the case of B1, the ECL signal [1] is reported as 251, the ECL signal [2] is reported as 322 and the ECL signal [3] is reported as 414. It also gave an ECL signal [4] of 380, an ECL signal [5] of 390 and an ECL signal [6] of 400. For the same binder, the ECL signal [7] was 454, the ECL signal [8] was 561 and the ECL signal [9] was 184000.

B2: Fab VH1-46_IGHD6-6*01_IGHJ1*01 S102A/S103P/S104F/H111F (APFF) & L6_IGKJ1*01 S30Q (Fab, V domains shown)
VH: B1 VH
VL: B1 VL with A30Q
notes: Tested as Fab made in E. coli: VH joined to CH1 from Plasmid A (His6 and Flag tags), VL joined to kappa CL from Plasmid C; also called APFF / S30Q
B2 was tested, and the ECL signal [10] was 262, the ECL signal [11] was 353 and the ECL signal [12] was 339. For the same binder, the ECL signal [13] was 243, the ECL signal [14] was 400 and the ECL signal [15] was 342. It also gave an ECL signal [16] of 298, an ECL signal [17] of 423 and an ECL signal [18] of 203000.

B3: Fab VH1-46_IGHD6-6*01_IGHJ1*01 S102A/S103P/S104F/H111F (APFF) & L6_IGKJ1*01 S30W (Fab, V domains shown)
VH: B1 VH
VL: B1 VL with A30W
notes: Tested as Fab made in E. coli: VH joined to CH1 from Plasmid A (His6 and Flag tags), VL joined to kappa CL from Plasmid C; also called APFF / S30W
Binder B3 has an ECL signal [19] of 289, an ECL signal [20] of 398 and an ECL signal [21] of 399. The ECL signal [22] was 372, the ECL signal [23] was 500 and the ECL signal [24] was 471. It also gave an ECL signal [25] of 342, an ECL signal [26] of 542 and an ECL signal [27] of 191000.

B4: Fab VH1-46_IGHD6-6*01_IGHJ1*01 S102A/S103P/S104F/H111F (APFF) & L6_IGKJ1*01 S30G (Fab, V domains shown)
VH: B1 VH
VL: B1 VL with A30G
notes: Tested as Fab made in E. coli: VH joined to CH1 from Plasmid A (His6 and Flag tags), VL joined to kappa CL from Plasmid C; also called APFF / S30G
With B4 the ECL signal [28] was 404, the ECL signal [29] was 387 and the ECL signal [30] was 355. It also gave an ECL signal [31] of 382, an ECL signal [32] of 427 and an ECL signal [33] of 393. For the same binder, the ECL signal [34] was 369, the ECL signal [35] was 485 and the ECL signal [36] was 180000.
